Source: PMC11335232

Biological target: T1, CTCF recombinant full-length (OriGene) (UniProt P49711)
T1 sequence: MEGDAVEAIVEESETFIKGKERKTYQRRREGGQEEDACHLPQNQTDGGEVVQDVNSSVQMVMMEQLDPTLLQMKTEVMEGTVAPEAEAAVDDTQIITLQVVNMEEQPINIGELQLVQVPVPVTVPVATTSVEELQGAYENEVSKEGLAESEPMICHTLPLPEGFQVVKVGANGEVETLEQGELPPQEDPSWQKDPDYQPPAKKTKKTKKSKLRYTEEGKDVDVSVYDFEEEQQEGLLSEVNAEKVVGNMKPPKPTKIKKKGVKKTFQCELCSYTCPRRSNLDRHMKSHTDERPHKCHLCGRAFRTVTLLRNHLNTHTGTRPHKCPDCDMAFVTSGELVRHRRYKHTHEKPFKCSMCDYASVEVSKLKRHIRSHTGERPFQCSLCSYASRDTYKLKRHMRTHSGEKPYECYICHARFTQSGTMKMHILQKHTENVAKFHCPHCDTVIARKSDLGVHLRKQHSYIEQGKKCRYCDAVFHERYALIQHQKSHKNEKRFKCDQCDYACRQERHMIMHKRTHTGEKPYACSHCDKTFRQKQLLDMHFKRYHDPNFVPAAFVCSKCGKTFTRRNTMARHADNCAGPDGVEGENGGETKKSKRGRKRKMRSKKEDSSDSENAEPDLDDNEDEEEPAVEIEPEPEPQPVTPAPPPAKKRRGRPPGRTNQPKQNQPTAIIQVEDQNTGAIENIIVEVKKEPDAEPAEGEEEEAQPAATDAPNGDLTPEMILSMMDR
Test: EMSA, competition
Conditions: LightShift Chemiluminescent RNA EMSA Kit (20158) and Pierce Magnetic RNA-Protein Pull-down Kit (20164) protocols; buffer, salt, pH and temperature not stated

Question: Which binding does the source give for “TTTACAGCGGTGAGGACCACCAAGGGGAGCTAAAATTCGAATGTAGGGAACAGACGATTAACAAGTTAGTTTCAGAATGAAAGACTCGAGTGTAAGAATTCAATGGGATAATTCCTGTAAAGCGTTTAGTACAGTAAAGAGCGAAGGGAAATTCTGAATAAAAGGCAGACACTATTTTAGGATTTGGCCTTCCCCG (double strand) [RAB5A-set3 promoter DNA probe (196 bp)]” here?
Answer: binds
